# Columns and labels:
# A549 cells [1] = experiment: Chromium release assay (defensin cytotoxicity); format: cell-based; settings: 1.5 to 24 μM, 18 hours, 37° C., serum-free RPMI; compared with unmodified HNP-1
# Method: Chromium-labeled A549 cells (American Type Culture Collection) were incubated (18 hours, 37° C.) in 100 μl of serum-free RPMI (Gibco Fluids Inc., Rockville, Md.) containing HNP-1, ADP-ribosyl-HNP-1, or HNP-1 with either an R:W substitution or an R:F substitution (1.5 to 24 μM) to quantify defensin cytotoxicity. Cytotoxicity is measured as the amount of chromium released from the cells (Panyutich et al., “Human neutrophil defensins and serpins form complexes and inactivate each other,” Am. J. Respir. Cell. Mol. Biol. 12:351-357, 1995).
# HNP-1 = biological target: T1, HNP-1 (Homo sapiens, UniProt P59665); experiment: Blocking of HNP-1 cytotoxic activity (radial diffusion and chromium release assays after pre-incubation with HNP-1); format: cell-based; settings: pre-incubated 1 hour at 37° C. with HNP-1 (100 nM, E. coli; 12 μM, chromium release)
# T1 sequence (P59665 65-94 limits assumed): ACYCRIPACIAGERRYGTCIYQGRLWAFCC
# Method: HNP-1 (100 nM) is incubated for 1 hour at 37° C. with ADP-ribosylated HNP-1, or HNP-1 with either an R:W substitution or an R:F substitution (0-800 nM) before the initiation of the cytotoxicity assay on E. coli.
# HNP-1 (12 μM) is incubated with ADP-ribosyl-HNP-1, or HNP-1 with either an R:W substitution or an R:F substitution (1.5-12 μM) for 1 hour at 37° C. before the initiation of the chromium release assay.
# A549 cells [2] = experiment: IL-8 production by A549 cells (indirect ELISA); format: cell-based; settings: concentrations of 0.75 and 1.5 μM; 12 or 24 hours; compared with the unmodified peptide
# Method: […] Culture medium is sampled after 12 or 24 hours of incubation and IL-8 content is assayed by indirect ELISA according to the manufacturer's instructions (R & D System Inc. Minneapolis, Minn.).
# CD3^+ T-cells = experiment: Chemotaxis assay; format: cell-based, human; settings: 0.025 to 25 nM in lower chamber, 4 hours, 37° C.
# Method: CD3^+ T-cells are isolated from human peripheral blood prepared by leukapheresis (NIH, Department of Transfusion Medicine, Bethesda, Md.) (Chertov et al., J. Biol. Chem. 271:2935-2940, 1996) and suspended in migration medium (RPMI 1640, 0.5% bovine serum albumin, 25 mM HEPES). Inserts coated with collagen IV (Becton Dickinson Labware, Bedford, Mass.) are placed into 24-well culture plates to form upper and lower chambers in each well. Upper chambers are wetted with migration medium, then 500 μl of migration medium with or without ADP-ribosyl-HNP-1, HNP-1, or with HNP-1 with either an R:W substitution or an R:F substitution (0.025 to 25 nM) are added to the lower chamber. Cells are added to the upper chamber and plates are incubated at 37° C. in 5% CO2 for 4 hours. Lymphocytes that migrate to the lower chamber are harvested by centrifugation and counted in a hematocytometer.
# [3] = test system: Escherichia coli ATCC43827; settings: compared with unmodified HNP-1; see PCT/US03/04649; cited from earlier work
substance,measurement,setting,value
ADP-ribosylated HNP-1: human neutrophil peptide HNP-1 (alpha defensin) with ADP-ribosylated arginine,cytotoxicity for A549 cells (chromium released),A549 cells [1],less cytotoxic than unmodified HNP-1
same,effect on the cytotoxic activity of HNP-1,HNP-1,blocks the cytotoxic activity of HNP-1 in a concentration-dependent manner
same,IL-8 release,A549 cells [2],significantly higher
same,ability to recruit T cells,CD3^+ T-cells,retain their ability to recruit T cells
same,cytotoxicity for E. coli ATCC43827 in the radial diffusion assay,[3],less cytotoxic than unmodified HNP-1
